Data on nine molecules can be found in patent US20230416330A1, “Optimized GIP Peptide Analogues” (Antag Therapeutics ApS, priority 2019, published 2023).

Starred links: 1 amine or outer side, 2 acyl side, 3 side chain; linkers in the order of their positions; H or OH if unused. Non-standard residues stand in square brackets, D forms with d. Groups on a side chain read outwards from the residue. No end group written: not given here. *: point of attachment. C18 diacid = O=C(O)CCCCCCCCCCCCCCCCC(=O)*; C16 diacid = O=C(O)CCCCCCCCCCCCCCC(=O)*; γGlu = O=C(O)[C@H](CCC(=O)[*:2])N[*:1]; Glutaryl = O=C(CCCC(=O)[*:2])[*:1]; Nle = CCCC[C@H](N)C(=O)O; AEEA = NCCOCCOCC(=O)O; Aib = CC(C)(N)C(=O)O

The assay has as its target T1, human GIP receptor (human, UniProt P48546 22-466).
T1 sequence (looked up): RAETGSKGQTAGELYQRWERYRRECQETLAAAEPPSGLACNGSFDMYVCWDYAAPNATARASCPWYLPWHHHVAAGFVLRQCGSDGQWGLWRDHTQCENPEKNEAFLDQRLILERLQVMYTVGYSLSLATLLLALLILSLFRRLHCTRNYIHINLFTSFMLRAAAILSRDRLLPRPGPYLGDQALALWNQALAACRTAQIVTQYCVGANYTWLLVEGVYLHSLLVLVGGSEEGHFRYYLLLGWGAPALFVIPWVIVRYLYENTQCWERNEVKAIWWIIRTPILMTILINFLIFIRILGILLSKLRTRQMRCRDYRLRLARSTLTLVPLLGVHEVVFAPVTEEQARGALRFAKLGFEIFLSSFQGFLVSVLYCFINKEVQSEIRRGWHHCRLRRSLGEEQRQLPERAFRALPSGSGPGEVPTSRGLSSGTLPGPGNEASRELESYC
Description: cell-based or functional assay.

B1: AT683 (peptide)
peptide: EGTFISDYSIA[Nle]DKIK([AEEA-AEEA-γGlu-C18 diacid])QQDFVEWLLAQKPSSGAPPPS-OH
As for B1, the “cAMP antagonism % inhib (CisBio assay)” value worked out at 93%; the “cAMP antagonism nM (IC50, CisBio assay)” value amounted to 15.9 nM; the “cAMP antagonism pIC50 (CisBio assay)” value was 7.8.

B2: AT667 (peptide)
peptide: EGTFISDYSI[Aib][Nle]DKIK(C16 diacid)QQDFVEWLLAQKPSSGAPPPS-OH
As for B2, the “cAMP antagonism % inhib (CisBio assay)” value amounted to 86%; the “cAMP antagonism nM (IC50, CisBio assay)” value came out at 0.736 nM; the “cAMP antagonism pIC50 (CisBio assay)” value is 9.1.

B3: AT686 (peptide)
peptide: EGTFISDYSI[Aib][Nle]DKIK([AEEA-AEEA-γGlu-C18 diacid])QQDFVEWLLAQKPSSGAPPPS-OH
Consider B3, for which the “cAMP antagonism % inhib (CisBio assay)” value worked out at 82%; the “cAMP antagonism nM (IC50, CisBio assay)” value stood at 3.42 nM; the “cAMP antagonism pIC50 (CisBio assay)” value worked out at 8.5.

B4: AT668 (peptide)
peptide: EGTFISDYSIALDKIK(C16 diacid)QQDFVEWLLAQKPSSGAPPPS-OH
modifications: N-terminus assumed
SMILES: CC[C@H](C)[C@H](NC(=O)[C@H](CO)NC(=O)[C@H](Cc1ccc(O)cc1)NC(=O)[C@H](CC(=O)O)NC(=O)[C@H](CO)NC(=O)[C@@H](NC(=O)[C@H](Cc1ccccc1)NC(=O)[C@@H](NC(=O)CNC(=O)[C@@H](N)CCC(=O)O)[C@@H](C)O)[C@@H](C)CC)C(=O)N[C@@H](C)C(=O)N[C@@H](CC(C)C)C(=O)N[C@@H](CC(=O)O)C(=O)N[C@@H](CCCCN)C(=O)N[C@H](C(=O)N[C@@H](CCCCNC(=O)CCCCCCCCCCCCCCC(=O)O)C(=O)N[C@@H](CCC(N)=O)C(=O)N[C@@H](CCC(N)=O)C(=O)N[C@@H](CC(=O)O)C(=O)N[C@@H](Cc1ccccc1)C(=O)N[C@H](C(=O)N[C@@H](CCC(=O)O)C(=O)N[C@@H](Cc1c[nH]c2ccccc12)C(=O)N[C@@H](CC(C)C)C(=O)N[C@@H](CC(C)C)C(=O)N[C@@H](C)C(=O)N[C@@H](CCC(N)=O)C(=O)N[C@@H](CCCCN)C(=O)N1CCC[C@H]1C(=O)N[C@@H](CO)C(=O)N[C@@H](CO)C(=O)NCC(=O)N[C@@H](C)C(=O)N1CCC[C@H]1C(=O)N1CCC[C@H]1C(=O)N1CCC[C@H]1C(=O)N[C@@H](CO)C(=O)O)C(C)C)[C@@H](C)CC
Take B4: the “cAMP antagonism % inhib (CisBio assay)” value is 92%; the “cAMP antagonism nM (IC50, CisBio assay)” value was 0.944 nM; the “cAMP antagonism pIC50 (CisBio assay)” value came to 9.

B5: AT677 (peptide)
peptide: Glutaryl-GTFISDYSIAMDKIK(C16 diacid)QQDFVNWLLAQKPSSGAPPPS-OH
SMILES: CC[C@H](C)[C@H](NC(=O)[C@H](CO)NC(=O)[C@H](Cc1ccc(O)cc1)NC(=O)[C@H](CC(=O)O)NC(=O)[C@H](CO)NC(=O)[C@@H](NC(=O)[C@H](Cc1ccccc1)NC(=O)[C@@H](NC(=O)CNC(=O)CCCC(=O)O)[C@@H](C)O)[C@@H](C)CC)C(=O)N[C@@H](C)C(=O)N[C@@H](CCSC)C(=O)N[C@@H](CC(=O)O)C(=O)N[C@@H](CCCCN)C(=O)N[C@H](C(=O)N[C@@H](CCCCNC(=O)CCCCCCCCCCCCCCC(=O)O)C(=O)N[C@@H](CCC(N)=O)C(=O)N[C@@H](CCC(N)=O)C(=O)N[C@@H](CC(=O)O)C(=O)N[C@@H](Cc1ccccc1)C(=O)N[C@H](C(=O)N[C@@H](CC(N)=O)C(=O)N[C@@H](Cc1c[nH]c2ccccc12)C(=O)N[C@@H](CC(C)C)C(=O)N[C@@H](CC(C)C)C(=O)N[C@@H](C)C(=O)N[C@@H](CCC(N)=O)C(=O)N[C@@H](CCCCN)C(=O)N1CCC[C@H]1C(=O)N[C@@H](CO)C(=O)N[C@@H](CO)C(=O)NCC(=O)N[C@@H](C)C(=O)N1CCC[C@H]1C(=O)N1CCC[C@H]1C(=O)N1CCC[C@H]1C(=O)N[C@@H](CO)C(=O)O)C(C)C)[C@@H](C)CC
Turning to B5, the “cAMP antagonism % inhib (CisBio assay)” value is 93%; the “cAMP antagonism nM (IC50, CisBio assay)” value was 0.447 nM; the “cAMP antagonism pIC50 (CisBio assay)” value is 9.4.

B6: AT673 (peptide)
peptide: EGTFISEYSI[Aib]LEKIK(C16 diacid)QQEFVEWLLAQKPSSGAPPPS-OH
modifications: N-terminus assumed
SMILES: CC[C@H](C)[C@H](NC(=O)[C@H](CCCCN)NC(=O)[C@H](CCC(=O)O)NC(=O)[C@H](CC(C)C)NC(=O)C(C)(C)NC(=O)[C@@H](NC(=O)[C@H](CO)NC(=O)[C@H](Cc1ccc(O)cc1)NC(=O)[C@H](CCC(=O)O)NC(=O)[C@H](CO)NC(=O)[C@@H](NC(=O)[C@H](Cc1ccccc1)NC(=O)[C@@H](NC(=O)CNC(=O)[C@@H](N)CCC(=O)O)[C@@H](C)O)[C@@H](C)CC)[C@@H](C)CC)C(=O)N[C@@H](CCCCNC(=O)CCCCCCCCCCCCCCC(=O)O)C(=O)N[C@@H](CCC(N)=O)C(=O)N[C@@H](CCC(N)=O)C(=O)N[C@@H](CCC(=O)O)C(=O)N[C@@H](Cc1ccccc1)C(=O)N[C@H](C(=O)N[C@@H](CCC(=O)O)C(=O)N[C@@H](Cc1c[nH]c2ccccc12)C(=O)N[C@@H](CC(C)C)C(=O)N[C@@H](CC(C)C)C(=O)N[C@@H](C)C(=O)N[C@@H](CCC(N)=O)C(=O)N[C@@H](CCCCN)C(=O)N1CCC[C@H]1C(=O)N[C@@H](CO)C(=O)N[C@@H](CO)C(=O)NCC(=O)N[C@@H](C)C(=O)N1CCC[C@H]1C(=O)N1CCC[C@H]1C(=O)N1CCC[C@H]1C(=O)N[C@@H](CO)C(=O)O)C(C)C
Take B6: the “cAMP antagonism % inhib (CisBio assay)” value amounted to 94%; the “cAMP antagonism nM (IC50, CisBio assay)” value was found to be 0.136 nM; the “cAMP antagonism pIC50 (CisBio assay)” value is 9.9.

B7: AT674 (peptide)
peptide: EGTFISEYSI[Aib][Nle]EKIK(C16 diacid)QQEFVEWLLAQKPSSGAPPPS-OH
modifications: N-terminus assumed
SMILES: CCCC[C@H](NC(=O)C(C)(C)NC(=O)[C@@H](NC(=O)[C@H](CO)NC(=O)[C@H](Cc1ccc(O)cc1)NC(=O)[C@H](CCC(=O)O)NC(=O)[C@H](CO)NC(=O)[C@@H](NC(=O)[C@H](Cc1ccccc1)NC(=O)[C@@H](NC(=O)CNC(=O)[C@@H](N)CCC(=O)O)[C@@H](C)O)[C@@H](C)CC)[C@@H](C)CC)C(=O)N[C@@H](CCC(=O)O)C(=O)N[C@@H](CCCCN)C(=O)N[C@H](C(=O)N[C@@H](CCCCNC(=O)CCCCCCCCCCCCCCC(=O)O)C(=O)N[C@@H](CCC(N)=O)C(=O)N[C@@H](CCC(N)=O)C(=O)N[C@@H](CCC(=O)O)C(=O)N[C@@H](Cc1ccccc1)C(=O)N[C@H](C(=O)N[C@@H](CCC(=O)O)C(=O)N[C@@H](Cc1c[nH]c2ccccc12)C(=O)N[C@@H](CC(C)C)C(=O)N[C@@H](CC(C)C)C(=O)N[C@@H](C)C(=O)N[C@@H](CCC(N)=O)C(=O)N[C@@H](CCCCN)C(=O)N1CCC[C@H]1C(=O)N[C@@H](CO)C(=O)N[C@@H](CO)C(=O)NCC(=O)N[C@@H](C)C(=O)N1CCC[C@H]1C(=O)N1CCC[C@H]1C(=O)N1CCC[C@H]1C(=O)N[C@@H](CO)C(=O)O)C(C)C)[C@@H](C)CC
B7: the “cAMP antagonism % inhib (CisBio assay)” value worked out at 93%; the “cAMP antagonism nM (IC50, CisBio assay)” value was determined as 0.447 nM; the “cAMP antagonism pIC50 (CisBio assay)” value is 9.4.

B8: AT685 (peptide)
peptide: EGTFISDYSI[Aib]LDKIK([AEEA-AEEA-γGlu-C18 diacid])QQDFVEWLLAQKPSSGAPPPS-OH
B8: the “cAMP antagonism % inhib (CisBio assay)” value came out at 83%; the “cAMP antagonism nM (IC50, CisBio assay)” value was determined as 2 nM; the “cAMP antagonism pIC50 (CisBio assay)” value was found to be 8.7.

B9: AT682 (peptide)
peptide: EGTFISDYSIALDKIK([AEEA-AEEA-γGlu-C18 diacid])QQDFVEWLLAQKPSSGAPPPS-OH
modifications: N-terminus assumed
SMILES: CC[C@H](C)[C@H](NC(=O)[C@H](CO)NC(=O)[C@H](Cc1ccc(O)cc1)NC(=O)[C@H](CC(=O)O)NC(=O)[C@H](CO)NC(=O)[C@@H](NC(=O)[C@H](Cc1ccccc1)NC(=O)[C@@H](NC(=O)CNC(=O)[C@@H](N)CCC(=O)O)[C@@H](C)O)[C@@H](C)CC)C(=O)N[C@@H](C)C(=O)N[C@@H](CC(C)C)C(=O)N[C@@H](CC(=O)O)C(=O)N[C@@H](CCCCN)C(=O)N[C@H](C(=O)N[C@@H](CCCCNC(=O)COCCOCCNC(=O)COCCOCCNC(=O)CC[C@H](NC(=O)CCCCCCCCCCCCCCCCC(=O)O)C(=O)O)C(=O)N[C@@H](CCC(N)=O)C(=O)N[C@@H](CCC(N)=O)C(=O)N[C@@H](CC(=O)O)C(=O)N[C@@H](Cc1ccccc1)C(=O)N[C@H](C(=O)N[C@@H](CCC(=O)O)C(=O)N[C@@H](Cc1c[nH]c2ccccc12)C(=O)N[C@@H](CC(C)C)C(=O)N[C@@H](CC(C)C)C(=O)N[C@@H](C)C(=O)N[C@@H](CCC(N)=O)C(=O)N[C@@H](CCCCN)C(=O)N1CCC[C@H]1C(=O)N[C@@H](CO)C(=O)N[C@@H](CO)C(=O)NCC(=O)N[C@@H](C)C(=O)N1CCC[C@H]1C(=O)N1CCC[C@H]1C(=O)N1CCC[C@H]1C(=O)N[C@@H](CO)C(=O)O)C(C)C)[C@@H](C)CC
In the case of B9, the “cAMP antagonism % inhib (CisBio assay)” value was 89%; the “cAMP antagonism nM (IC50, CisBio assay)” value was 13.6 nM; the “cAMP antagonism pIC50 (CisBio assay)” value was found to be 7.9.
